± gives the half width of the 95% confidence interval.
Tests used:
[1] = folding stability dG unfold from chymotrypsin proteolysis; higher = more stable
In short: (§1)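 Designed mini-proteins (under 80 residues, no cysteine) in a PA-tagged cDNA display construct were digested with trypsin and chymotrypsin. Each protease was used at 11 concentrations (threefold dilutions) plus a no-protease condition, followed by sequencing. K50 was inferred by Bayesian fitting of sequencing counts, and unfolding free energy was derived against a sequence-predicted unfolded-state K50 and a shared folded-state K50, per protease or combined. Only designs with AlphaFold2 dimer inter-PAE above 15 were kept.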

[2] = folding stability dG unfold from trypsin proteolysis; higher = more stable
In short: as §1

[3] = folding stability dG unfold (combined trypsin and chymotrypsin); higher = more stable
In short: as §1

Row | Sequence | folding stability dG unfold [1] [kcal/mol] | folding stability dG unfold [2] [kcal/mol] | folding stability dG unfold [3] [kcal/mol]
1 | SAGGSAGGSPEAPADRKLVALLRSPDSDTVYLVEITPDGIVAYNANNEKTPVSPEYLVAVFDASAGGSAGGS [r20_35_TrMRF] | 1.09 ± 0.054 | 0.883 ± 0.012 | 1.02 ± 0.036
2 | SAGGSAGGSPEAVVVQTPDGRWLVFLRGPDGSVRPIVVPAGRPEALREVAEELGLTVENLDPVSAGGSAGGS [r12_891_TrMRF] | 2.1 ± 0.04 | 1.83 ± 0.052 | 2 ± 0.065
3 | SAGGSAGGSPEEFEIKIVEPTPIEINPNGSVSLTFTVPNGWYLRIMIMRPPDGNPQPMIMIIPSAGGSAGGS [r20_240_TrROS] | 3.54 ± 0.062 | 2.86 ± 0.086 | 3.22 ± 0.11
4 | SAGGSAGGSPIDITDIEVEQHEHPDGQQYHEVKIRLPDGRPIKIWMSPGSTPDQVLKQAKEFISAGGSAGGS [r12_1047_TrROS] | -0.0705 ± 0.26 | -0.137 ± 0.12 | 0.0598 ± 0.17
5 | SAGGSAGGSPKIEIEQDPNGWWRVKIRPPDGKKRPINIPPGDPEKILDEAEENGWKIDEIEPWSAGGSAGGS [r12_891_TrROS] | 0.631 ± 0.14 | -0.045 ± 0.2 | 0.404 ± 0.12
6 | SAGGSAGGSPKIELLDSRPRPDGSLVELLAIEAEDEIRLLVIVTHPDGVDIRFFEPEYPDLDLSAGGSAGGS [r12_315_TrMRF] | 0.008 ± 0.18 | 0.386 ± 0.15 | 0.279 ± 0.3
7 | SAGGSAGGSPKIKEVKYIPPTGKIEVLIELPNGKPIKVTFDPKIKVNPVFYNGKPIFYFTGNPSAGGSAGGS [r12_789_TrMRF] | 1.21 ± 0.073 | 0.925 ± 0.015 | 1.19 ± 0.076
8 | SAGGSAGGSPKITVDPNTGKVLIEIPGPSGTALIIAEVKDGKITRVDIIGPPELREAIKKLLGSAGGSAGGS [r20_112_TrMRF] | 2.04 ± 0.092 | 2.19 ± 0.082 | 2.08 ± 0.073
9 | SAGGSAGGSPKPKVKKFNMEPVEIEPNPDNGHLSIRFPNGYYIQFHYDDDGEYELQIMPPDDLSAGGSAGGS [r12_351_TrROS] | 0.764 ± 0.14 | -0.0555 ± 0.14 | 0.455 ± 0.17
10 | SAGGSAGGSPLAPGQTVTVRVERVDGPVVITVRNEATGETLTLTFDRPAEDLKPGDTVTVTVTSAGGSAGGS [r12_525_TrROS_Hall] | 2.897 ± 0.021 | 2.05 ± 0.039 | 2.54 ± 0.045
11 | SAGGSAGGSPLPPEVYKIRLKVDGKWYEALARVKPDGTVEVFLKDTGKTFTVPLKDLEIEKLDSAGGSAGGS [r12_782_TrROS_Hall] | 3.51 ± 0.064 | 3.25 ± 0.19 | 3.35 ± 0.14
12 | SAGGSAGGSPMVVFEFKIKDPKIRKAIDEAKKDGDKSAEIPFPNGWPIRITEIEDNYIRITIWSAGGSAGGS [r12_334_TrROS] | 2.18 ± 0.14 | 1.17 ± 0.058 | 1.69 ± 0.2
13 | SAGGSAGGSPNRKEIYIPISEEQFKENGMTPEEIADRIAEKFPHIPPNVRIEYPPNGWIKITVSAGGSAGGS [r12_50_TrROS] | -0.208 ± 0.33 | 0.198 ± 0.11 | 0.229 ± 0.21
14 | SAGGSAGGSPNYRTVTVTLPNGEVYVIDVSQLIESDPNYVPGDPISDEELVALAKKRAEELELSSAGGSAGG [r6_65_JUSTAS] | 3.249 ± 0.031 | 2.71 ± 0.051 | 3.04 ± 0.041
15 | SAGGSAGGSPPPDVPVDVGERVEYHPPGGVVVREYRTPEGRLIRVEIEELEGGELVRRVVLPLSAGGSAGGS [r12_264_JUSTAS] | 1.33 ± 0.07 | 1.14 ± 0.095 | 1.25 ± 0.17
16 | SAGGSAGGSPPPIEIRFPNGWEIDKIDPDDAHIILRMPNWIISIEIDPKDGEIDIDIVPNADVSAGGSAGGS [r12_243_TrROS] | 2.09 ± 0.32 | 1.15 ± 0.1 | 1.71 ± 0.27
17 | SAGGSAGGSPPVKYRITIEMKDPNGKEHTHTIEIPGMNPDDAKEFLEDIPIPPGIKDVEIEPYSAGGSAGGS [r12_886_TrROS] | -0.55 ± 0.68 | -0.0813 ± 0.068 | -0.148 ± 0.24
